One block for each substance: values may come before it.
Assays:
Myc-GABAB1 = Myc-GABAB1 (UniProt Q9Z0U4); test: co-IP; cell surface immunoprecipitation: intact COS-1 cells incubated with mouse anti-Myc on ice for 3 h, then PBS or 100 μM baclofen for 15 min, lysed, protein G-agarose, Western blot; cells also expressed HA-GABAB2
HA-GABAB2 = HA-GABAB2 (UniProt O88871)
HA-GABAB1-YFP = HA-GABAB1-YFP (UniProt Q9Z0U4); test: FRET or BRET; BRET donor saturation curves in intact COS-1 cells: fixed Rluc fusion (donor) and fixed GABAB2, increasing GABAB1-YFP (acceptor); coelenterazine h 5 μM; PBS or 100 μM baclofen for 15 min; fit with a single binding site

UniProt O88871, sequence (O88871 41-940): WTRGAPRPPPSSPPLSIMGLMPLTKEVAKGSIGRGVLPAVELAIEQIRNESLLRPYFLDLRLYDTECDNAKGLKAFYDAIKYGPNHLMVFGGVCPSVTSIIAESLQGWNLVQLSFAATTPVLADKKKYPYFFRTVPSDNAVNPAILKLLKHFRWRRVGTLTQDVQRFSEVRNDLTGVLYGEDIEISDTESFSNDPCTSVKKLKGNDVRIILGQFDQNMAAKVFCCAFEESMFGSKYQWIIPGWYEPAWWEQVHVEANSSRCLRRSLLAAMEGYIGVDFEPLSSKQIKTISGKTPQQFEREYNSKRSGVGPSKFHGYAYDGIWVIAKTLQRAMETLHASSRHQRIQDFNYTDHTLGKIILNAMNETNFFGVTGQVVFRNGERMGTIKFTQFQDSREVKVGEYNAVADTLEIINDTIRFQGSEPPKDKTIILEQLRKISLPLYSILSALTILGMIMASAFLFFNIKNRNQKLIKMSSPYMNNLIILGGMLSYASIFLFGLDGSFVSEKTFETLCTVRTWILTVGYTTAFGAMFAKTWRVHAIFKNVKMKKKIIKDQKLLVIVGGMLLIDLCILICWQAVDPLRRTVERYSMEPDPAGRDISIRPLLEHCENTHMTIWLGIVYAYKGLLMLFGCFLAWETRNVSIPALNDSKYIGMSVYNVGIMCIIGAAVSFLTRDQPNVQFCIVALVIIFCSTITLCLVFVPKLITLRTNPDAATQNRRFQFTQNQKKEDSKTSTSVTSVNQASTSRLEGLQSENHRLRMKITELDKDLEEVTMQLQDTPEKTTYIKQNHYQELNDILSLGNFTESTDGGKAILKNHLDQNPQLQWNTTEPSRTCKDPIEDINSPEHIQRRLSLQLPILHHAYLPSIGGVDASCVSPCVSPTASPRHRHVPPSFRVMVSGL

ratio of KCTD12:GABAB1 band intensity on Western blots (PBS) (Myc-GABAB1): 0.84 | ratio of KCTD12:GABAB1 band intensity on Western blots (baclofen) (Myc-GABAB1): 0.91
Substance: FLAG-KCTD12 (from UniProt Q6WVG3 1-327) (natural protein)

Endo H-resistant fraction of GABAB1 protein in COS-1 cells co-expressing GABAB1 and GABAB2 (all GABAB1 Endo H-sensitive without GABAB2) (HA-GABAB2): 44.5%
Substance: Myc-GABAB1 (from UniProt Q9Z0U4 20-960) (receptor)

BRET50 (HA-GABAB1-YFP): 0.026
Substance: Rluc-KCTD12 (from UniProt Q6WVG3 1-327) (natural protein)

Source: article PMC3750179
